Numbered stars: 1 amine (or outer) side, 2 acyl side, 3 side chain; on linkers, the order of the positions; unused ones are H or OH. Bridge positions count the residues as written; N and C are the ends. Side chains are listed from the residue outwards. Ends that are not written are not given here. * marks the point of attachment. C20 diacid = O=C(O)CCCCCCCCCCCCCCCCCCC(=O)*; C18 diacid = O=C(O)CCCCCCCCCCCCCCCCC(=O)*; C16 diacid = O=C(O)CCCCCCCCCCCCCCC(=O)*; γGlu = O=C(O)[C@H](CCC(=O)[*:2])N[*:1]; C14 diacid = O=C(O)CCCCCCCCCCCCC(=O)*

This note sets out measurements from US20140087995A1 (published 2014).

Test [1] deals with T1, rat calcitonin receptor (rat, UniProt P32214 25-516).
T1 construct: whole, on cells; Membranes of transiently transfected BHK tk'ts 13 cells; also called rCTR; rat calcitonin (a) receptor
T1 sequence (looked up): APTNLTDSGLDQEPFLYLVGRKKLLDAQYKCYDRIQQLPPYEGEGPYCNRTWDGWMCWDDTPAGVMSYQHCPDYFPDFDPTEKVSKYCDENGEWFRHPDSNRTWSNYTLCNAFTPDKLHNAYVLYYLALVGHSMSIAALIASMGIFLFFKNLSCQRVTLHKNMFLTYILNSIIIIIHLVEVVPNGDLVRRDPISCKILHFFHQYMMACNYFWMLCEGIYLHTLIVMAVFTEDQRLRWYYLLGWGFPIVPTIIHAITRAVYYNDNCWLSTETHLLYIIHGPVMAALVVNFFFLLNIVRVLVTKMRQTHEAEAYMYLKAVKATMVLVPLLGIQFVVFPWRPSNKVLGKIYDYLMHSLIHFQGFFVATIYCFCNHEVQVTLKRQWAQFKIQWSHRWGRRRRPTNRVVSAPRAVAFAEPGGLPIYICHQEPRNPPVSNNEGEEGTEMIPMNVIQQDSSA
Description: SPA competition with 125I-calcitonin on membranes of BHK tk'ts 13 cells with rat calcitonin receptor (Assay VIII).

For test [2], the target named is T1, rat calcitonin receptor. Description: ratio of IC50 on rat calcitonin receptor to IC50 on rat amylin receptor (reference m40).
The target of test [3] is T2, human calcitonin receptor (human, UniProt P30988 25-474).
T2 construct: whole, on cells; Membranes of stably transfected cells; also called hCTR; hCT
T2 sequence (looked up): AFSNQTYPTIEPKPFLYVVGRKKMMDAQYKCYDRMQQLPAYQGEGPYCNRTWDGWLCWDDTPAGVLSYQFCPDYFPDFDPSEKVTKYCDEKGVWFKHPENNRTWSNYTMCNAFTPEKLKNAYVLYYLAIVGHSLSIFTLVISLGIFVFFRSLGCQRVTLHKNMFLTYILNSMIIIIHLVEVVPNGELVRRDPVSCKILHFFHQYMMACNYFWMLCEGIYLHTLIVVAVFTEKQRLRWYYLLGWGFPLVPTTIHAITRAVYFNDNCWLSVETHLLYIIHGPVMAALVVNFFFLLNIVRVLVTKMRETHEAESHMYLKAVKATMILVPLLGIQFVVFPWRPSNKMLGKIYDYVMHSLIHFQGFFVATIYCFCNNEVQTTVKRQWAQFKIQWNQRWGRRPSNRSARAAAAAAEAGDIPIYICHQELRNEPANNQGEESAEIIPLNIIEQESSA
Description: ratio of IC50 on human calcitonin receptor to IC50 on human amylin receptor (reference m42), SPA competition. Summed up:
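Scintillation proximity competition binding on cell membranes at 35 ng/μL with SPA beads, in 50 mM Hepes pH 7.4, 1 mM CaCl2, 5 mM MgCl₂, 0.1% OA, 0.02% Tween20. Incubated 120 min at 25° C with shaking. IC₅₀ from one-site competition fit.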

The target in test [4] is T3, rat amylin receptor (rat calcitonin receptor + rat RAMP 3) (rat, UniProt P32214 25-516; Q9JJ73 23-147).
T3 construct: whole, on cells; Membranes of transiently transfected BHK tk'ts 13 cells; also called rAmylin-R; rat amylin 3(a) receptor
T3 sequence (looked up) 1: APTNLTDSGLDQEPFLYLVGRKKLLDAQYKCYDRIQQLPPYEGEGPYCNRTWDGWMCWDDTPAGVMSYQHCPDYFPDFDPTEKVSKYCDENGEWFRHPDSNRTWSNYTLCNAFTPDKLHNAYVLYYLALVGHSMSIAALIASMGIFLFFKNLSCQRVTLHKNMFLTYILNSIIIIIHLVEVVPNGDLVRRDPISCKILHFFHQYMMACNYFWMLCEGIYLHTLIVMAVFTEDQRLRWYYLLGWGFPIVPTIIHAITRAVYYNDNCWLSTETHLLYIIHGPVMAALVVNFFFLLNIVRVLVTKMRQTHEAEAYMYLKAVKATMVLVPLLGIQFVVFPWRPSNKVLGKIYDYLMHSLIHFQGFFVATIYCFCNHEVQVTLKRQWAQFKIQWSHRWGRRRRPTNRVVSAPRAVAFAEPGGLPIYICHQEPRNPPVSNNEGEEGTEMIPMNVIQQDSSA
T3 sequence (looked up) 2: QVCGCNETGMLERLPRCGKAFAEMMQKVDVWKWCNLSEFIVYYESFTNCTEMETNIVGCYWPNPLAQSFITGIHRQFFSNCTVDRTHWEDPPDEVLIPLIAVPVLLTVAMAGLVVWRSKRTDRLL
Description: SPA competition with 125I-rat amylin on membranes of BHK tk'ts 13 cells with rat calcitonin receptor + rat RAMP3 (Assay VI).

B1: N^ε1-[(4S)-4-carboxy-4-(13-carboxytridecanoylamino)butanoyl]-[Arg17,Pro21,Pro27,His34]-h-amylin (peptide)
peptide: K([γGlu-C14 diacid])CNTATCATQRLANFLRHSSPNFGAIPSSTNVGHNTY-NH2
modifications: disulfide 2-7; N-terminus assumed
SMILES: CC[C@H](C)[C@H](NC(=O)[C@H](C)NC(=O)CNC(=O)[C@H](Cc1ccccc1)NC(=O)[C@H](CC(N)=O)NC(=O)[C@@H]1CCCN1C(=O)[C@H](CO)NC(=O)[C@H](CO)NC(=O)[C@H](Cc1c[nH]cn1)NC(=O)[C@H](CCCNC(=N)N)NC(=O)[C@H](CC(C)C)NC(=O)[C@H](Cc1ccccc1)NC(=O)[C@H](CC(N)=O)NC(=O)[C@H](C)NC(=O)[C@H](CC(C)C)NC(=O)[C@H](CCCNC(=N)N)NC(=O)[C@H](CCC(N)=O)NC(=O)[C@@H](NC(=O)[C@H](C)NC(=O)[C@@H]1CSSC[C@H](NC(=O)[C@@H](N)CCCCNC(=O)CC[C@H](NC(=O)CCCCCCCCCCCCC(=O)O)C(=O)O)C(=O)N[C@@H](CC(N)=O)C(=O)N[C@@H]([C@@H](C)O)C(=O)N[C@@H](C)C(=O)N[C@@H]([C@@H](C)O)C(=O)N1)[C@@H](C)O)C(=O)N1CCC[C@H]1C(=O)N[C@@H](CO)C(=O)N[C@@H](CO)C(=O)N[C@H](C(=O)N[C@@H](CC(N)=O)C(=O)N[C@H](C(=O)NCC(=O)N[C@@H](Cc1c[nH]cn1)C(=O)N[C@@H](CC(N)=O)C(=O)N[C@H](C(=O)N[C@@H](Cc1ccc(O)cc1)C(N)=O)[C@@H](C)O)C(C)C)[C@@H](C)O
notes: Synthetic acylated analogue of human amylin
In general, IC50 refers to the concentration that inhibits the measured activity by half. Regarding B1, the concentration for half-maximal inhibition (IC50) with rat calcitonin receptor [1] turned out to be 707 nM; in test [4] it was 2.52 nM. Further, in the test with rat calcitonin receptor [2], the “Ratio rCT/rAmylin binding” value was 280. In addition, the “Ratio hCT/hAmylin binding” value in test [3] came out at 23.5.

B2: N^ε1-[(4S)-4-carboxy-4-(15-carboxypentadecanoylamino)butanoyl]-[Arg17,Pro21,Pro27,His34]-h-amylin (peptide)
peptide: K([γGlu-C16 diacid])CNTATCATQRLANFLRHSSPNFGAIPSSTNVGHNTY-NH2
modifications: disulfide 2-7; N-terminus assumed
SMILES: CC[C@H](C)[C@H](NC(=O)[C@H](C)NC(=O)CNC(=O)[C@H](Cc1ccccc1)NC(=O)[C@H](CC(N)=O)NC(=O)[C@@H]1CCCN1C(=O)[C@H](CO)NC(=O)[C@H](CO)NC(=O)[C@H](Cc1c[nH]cn1)NC(=O)[C@H](CCCNC(=N)N)NC(=O)[C@H](CC(C)C)NC(=O)[C@H](Cc1ccccc1)NC(=O)[C@H](CC(N)=O)NC(=O)[C@H](C)NC(=O)[C@H](CC(C)C)NC(=O)[C@H](CCCNC(=N)N)NC(=O)[C@H](CCC(N)=O)NC(=O)[C@@H](NC(=O)[C@H](C)NC(=O)[C@@H]1CSSC[C@H](NC(=O)[C@@H](N)CCCCNC(=O)CC[C@H](NC(=O)CCCCCCCCCCCCCCC(=O)O)C(=O)O)C(=O)N[C@@H](CC(N)=O)C(=O)N[C@@H]([C@@H](C)O)C(=O)N[C@@H](C)C(=O)N[C@@H]([C@@H](C)O)C(=O)N1)[C@@H](C)O)C(=O)N1CCC[C@H]1C(=O)N[C@@H](CO)C(=O)N[C@@H](CO)C(=O)N[C@H](C(=O)N[C@@H](CC(N)=O)C(=O)N[C@H](C(=O)NCC(=O)N[C@@H](Cc1c[nH]cn1)C(=O)N[C@@H](CC(N)=O)C(=O)N[C@H](C(=O)N[C@@H](Cc1ccc(O)cc1)C(N)=O)[C@@H](C)O)C(C)C)[C@@H](C)O
notes: as for B1
For the molecule B2, the IC50 was 404 nM with rat calcitonin receptor [1] and 1.24 nM in test [4]. The “Ratio rCT/rAmylin binding” value with rat calcitonin receptor [2] was 327. The “Ratio hCT/hAmylin binding” value in test [3] was determined as 18.5.

B3: N^ε1-[(4S)-4-carboxy-4-(17-carboxyheptadecanoylamino)butanoyl]-[Arg17,Pro21,Pro27,His34]-h-amylin (peptide)
peptide: K([γGlu-C18 diacid])CNTATCATQRLANFLRHSSPNFGAIPSSTNVGHNTY-NH2
modifications: disulfide 2-7; N-terminus assumed
SMILES: CC[C@H](C)[C@H](NC(=O)[C@H](C)NC(=O)CNC(=O)[C@H](Cc1ccccc1)NC(=O)[C@H](CC(N)=O)NC(=O)[C@@H]1CCCN1C(=O)[C@H](CO)NC(=O)[C@H](CO)NC(=O)[C@H](Cc1c[nH]cn1)NC(=O)[C@H](CCCNC(=N)N)NC(=O)[C@H](CC(C)C)NC(=O)[C@H](Cc1ccccc1)NC(=O)[C@H](CC(N)=O)NC(=O)[C@H](C)NC(=O)[C@H](CC(C)C)NC(=O)[C@H](CCCNC(=N)N)NC(=O)[C@H](CCC(N)=O)NC(=O)[C@@H](NC(=O)[C@H](C)NC(=O)[C@@H]1CSSC[C@H](NC(=O)[C@@H](N)CCCCNC(=O)CC[C@H](NC(=O)CCCCCCCCCCCCCCCCC(=O)O)C(=O)O)C(=O)N[C@@H](CC(N)=O)C(=O)N[C@@H]([C@@H](C)O)C(=O)N[C@@H](C)C(=O)N[C@@H]([C@@H](C)O)C(=O)N1)[C@@H](C)O)C(=O)N1CCC[C@H]1C(=O)N[C@@H](CO)C(=O)N[C@@H](CO)C(=O)N[C@H](C(=O)N[C@@H](CC(N)=O)C(=O)N[C@H](C(=O)NCC(=O)N[C@@H](Cc1c[nH]cn1)C(=O)N[C@@H](CC(N)=O)C(=O)N[C@H](C(=O)N[C@@H](Cc1ccc(O)cc1)C(N)=O)[C@@H](C)O)C(C)C)[C@@H](C)O
notes: as for B1
Turning to B3, the IC50 turned out to be 47 nM with rat calcitonin receptor [1] and 1.17 nM in test [4]. Also, the “Ratio rCT/rAmylin binding” value with rat calcitonin receptor [2] is 40.3. In addition, the “Ratio hCT/hAmylin binding” value in test [3] worked out at 59.4.

B4: N^ε1-[(4S)-4-carboxy-4-(19-carboxynonadecanoylamino)butanoyl]-[Ala14,Arg17,Pro21,Pro27,His34]-h-amylin (peptide)
peptide: K([γGlu-C20 diacid])CNTATCATQRLAAFLRHSSPNFGAIPSSTNVGHNTY-NH2
modifications: disulfide 2-7; N-terminus assumed
SMILES: CC[C@H](C)[C@H](NC(=O)[C@H](C)NC(=O)CNC(=O)[C@H](Cc1ccccc1)NC(=O)[C@H](CC(N)=O)NC(=O)[C@@H]1CCCN1C(=O)[C@H](CO)NC(=O)[C@H](CO)NC(=O)[C@H](Cc1c[nH]cn1)NC(=O)[C@H](CCCNC(=N)N)NC(=O)[C@H](CC(C)C)NC(=O)[C@H](Cc1ccccc1)NC(=O)[C@H](C)NC(=O)[C@H](C)NC(=O)[C@H](CC(C)C)NC(=O)[C@H](CCCNC(=N)N)NC(=O)[C@H](CCC(N)=O)NC(=O)[C@@H](NC(=O)[C@H](C)NC(=O)[C@@H]1CSSC[C@H](NC(=O)[C@@H](N)CCCCNC(=O)CC[C@H](NC(=O)CCCCCCCCCCCCCCCCCCC(=O)O)C(=O)O)C(=O)N[C@@H](CC(N)=O)C(=O)N[C@@H]([C@@H](C)O)C(=O)N[C@@H](C)C(=O)N[C@@H]([C@@H](C)O)C(=O)N1)[C@@H](C)O)C(=O)N1CCC[C@H]1C(=O)N[C@@H](CO)C(=O)N[C@@H](CO)C(=O)N[C@H](C(=O)N[C@@H](CC(N)=O)C(=O)N[C@H](C(=O)NCC(=O)N[C@@H](Cc1c[nH]cn1)C(=O)N[C@@H](CC(N)=O)C(=O)N[C@H](C(=O)N[C@@H](Cc1ccc(O)cc1)C(N)=O)[C@@H](C)O)C(C)C)[C@@H](C)O
notes: Synthetic acylated analogue of human amylin; also called compound 93
Consider B4, for which the values for the half-maximal inhibitory concentration (IC50) (in the test with rat calcitonin receptor [1]; in test [4]) were 131 nM and 1.58 nM, respectively. Further, the “Ratio rCT/rAmylin binding” value in the test with rat calcitonin receptor [2] turned out to be 83.2. Moreover, the “Ratio hCT/hAmylin binding” value in test [3] worked out at 101.
